Measured values from article PMC3684361.

Target: TET2 catalytic domain (TET2CD: a.a. 916-1921), recombinant from Sf9
Experiment: pull-down

B1: OGT, full-length, recombinant from Sf9 (enzyme)
chain: MASSVGNVADSTEPTKRMLSFQGLAELAHREYQAGDFEAAERHCMQLWRQEPDNTGVLLLLSSIHFQCRRLDRSAHFSTLAIKQNPLLAEAYSNLGNVYKERGQLQEAIEHYRHALRLKPDFIDGYINLAAALVAAGDMEGAVQAYVSALQYNPDLYCVRSDLGNLLKALGRLEEAKACYLKAIETQPNFAVAWSNLGCVFNAQGEIWLAIHHFEKAVTLDPNFLDAYINLGNVLKEARIFDRAVAAYLRALSLSPNHAVVHGNLACVYYEQGLIDLAIDTYRRAIELQPHFPDAYCNLANALKEKGSVAEAEDCYNTALRLCPTHADSLNNLANIKREQGNIEEAVRLYRKALEVFPEFAAAHSNLASVLQQQGKLQEALMHYKEAIRISPTFADAYSNMGNTLKEMQDVQGALQCYTRAIQINPAFADAHSNLASIHKDSGNIPEAIASYRTALKLKPDFPDAYCNLAHCLQIVCDWTDYDERMKKLVSIVADQLEKNRLPSVHPHHSMLYPLSHGFRKAIAERHGNLCLDKINVLHKPPYEHPKDLKLSDGRLRVGYVSSDFGNHPTSHLMQSIPGMHNPDKFEVFCYALSPDDGTNFRVKVMAEANHFIDLSQIPCNGKAADRIHQDGIHILVNMNGYTKGARNELFALRPAPIQAMWLGYPGTSGALFMDYIITDQETSPAEVAEQYSEKLAYMPHTFFIGDHANMFPHLKKKAVIDFKSNGHIYDNRIVLNGIDLKAFLDSLPDVKIVKMKCPDGGDNADSSNTALNMPVIPMNTIAEAVIEMINRGQIQITINGFSISNGLATTQINNKAATGEEVPRTIIVTTRSQYGLPEDAIVYCNFNQLYKIDPSTLQMWANILKRVPNSVLWLLRFPAVGEPNIQQYAQNMGLPQNRIIFSPVAPKEEHVRRGQLADVCLDTPLCNGHTTGMDVLWAGTPMVTMPGETLASRVAASQLTCLGCLELIAKNRQEYEDIAVKLGTDLEYLKKVRGKVWKQRISSPLFNTKQYTMELERLYLQMWEHYAAGNKPDHMIKPVEVTESA
For B1, the stoichiometry N was 1.
